B1: TRIM39 (parent)
chain: CKACITRWWEDLERDFPCPVCRKT
B2: APBB1IP (parent)
chain: SQVSMWDQRWQDHQPLLPITDVP

Variants of: B1
Test: protein stability index of a GFP-peptide fusion (GPS, HEK-293T) (PSI 1-6); higher = more stable
Conditions: c terminus: a fixed tail appended
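Further: lentivirally expressed fusions sorted by FACS into six bins by GFP to DsRed ratio, PSI derived from sequencing read proportions per bin multiplied by bin number.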

Protein stability index of substitutions, site by site:
R22: A 4.36 | E 4.37 | T 3.72 | M 3.72 | Y 3.58 | K 3.47 | Q 3.96 | V 3.04 | G 4.6 | D 3.75 | I 3.62 | C 3.74 | L 3.81 | N 4.22 | F 3.4 | W 2.53 | H 4.32 | P 3.15 | S 3.56
V20: K 4.19 | M 3.37 | Y 3.73 | P 2.36 | L 4.16 | H 3.88 | R 3.99 | Q 4.09 | F 3.78 | W 3.56 | N 4.37 | G 3.39 | T 4.4 | I 4.22 | S 4.3
C21: T 1.56 | P 1.11 | Q 2.48 | F 1.43 | W 2.18 | Y 3.73 | I 1.38 | S 1.68 | N 2.39 | D 2.57 | E 1.32 | G 1.4 | R 1.94 | L 1.62 | H 2.63 | M 1.56 | V 1.52 | A 2.18 | K 2.19
K23: L 2.96 | P 3.41 | T 3.31 | S 3.63 | V 3.42 | E 4.33 | A 3.9 | G 3.38 | F 2.57 | N 3.95 | Y 2.29 | R 3.25 | Q 4.58 | D 4.34 | C 3.13 | W 2.95 | I 3.23 | H 3.27 | M 3.37
T24: F 3.03 | K 3.83 | V 3.57 | N 3.61 | H 3.58 | R 3.67 | E 3.98 | D 4.83 | L 3.78 | C 2.75 | A 4.07 | W 3.02 | Y 3.74 | I 3.57 | M 3.76 | G 4.24 | P 2.78 | Q 4.21 | S 4.03

Variants of: B2
Test: as above
Conditions: c terminus: native

Protein stability index of substitutions, site by site:
R9: F 3.11 | E 3.54 | C 2.26 | P 3.64 | H 3.7 | S 2.4 | A 1.84 | D 3.69 | G 2.89 | Q 3.39 | Y 2.42 | V 2.38 | M 3.13
T20: H 2.37 | F 2.58 | C 2.34 | V 1.65 | A 2.33 | S 3.27 | M 2.04
P23: K 2.03 | T 2.01 | G 1.91 | R 4.33 | D 3.6 | F 2.21 | A 2.56 | Y 2.74 | C 2.85 | N 1.81 | M 1.19 | W 2.17 | S 3.01 | Q 1.61
P18: Y 2.07 | N 2.56 | T 1.31 | H 2.38 | M 1.71 | F 1.36 | G 1.76 | W 1.28 | C 1.82
Q8: S 2.28 | L 1.86 | K 2.68 | E 2.6 | F 1.73 | D 2.35 | G 2.27 | H 2.16 | T 2.09
V22: A 2.31 | P 2.83 | T 2.65 | W 2.19 | H 2.75 | M 2.53 | C 2.06 | N 2.69 | E 3.45 | L 2.43 | G 2.42 | K 3.37
I19: A 2.67 | H 3.78 | E 3.36 | D 4.17 | Y 2.84 | V 2.17 | W 1.36 | K 4.04 | P 3.04 | F 2.79 | S 3 | G 3.67

— the supplement of paper PMC10567573
